Test results published in PMC12650144, “Interactive Role of the DHPR β1a SH3 Domain in Skeletal Muscle Excitation–Contraction Coupling” (Biomolecules, 2025).

Tests used:
Experiment in all cases: other fluorescence titration; tryptophan fluorescence quenching: intrinsic fluorescence of the β subunit or β1a-SH3 domain in the cuvette (sub-micromolar; 50 nM β1a-FL for the AID titration) monitored while titrating the II-III loop or peptides; excitation 280 nm, emission 340 nm; corrected for dilution and intrinsic fluorescence of the titrant; nonlinear regression
[1] = molecular target: DHPR β1a subunit, full length (mouse) (UniProt Q8R3Z5)
Chain of DHPR β1a subunit, full length (mouse) (Q8R3Z5 other isoform, or with tags, fused parts or gaps): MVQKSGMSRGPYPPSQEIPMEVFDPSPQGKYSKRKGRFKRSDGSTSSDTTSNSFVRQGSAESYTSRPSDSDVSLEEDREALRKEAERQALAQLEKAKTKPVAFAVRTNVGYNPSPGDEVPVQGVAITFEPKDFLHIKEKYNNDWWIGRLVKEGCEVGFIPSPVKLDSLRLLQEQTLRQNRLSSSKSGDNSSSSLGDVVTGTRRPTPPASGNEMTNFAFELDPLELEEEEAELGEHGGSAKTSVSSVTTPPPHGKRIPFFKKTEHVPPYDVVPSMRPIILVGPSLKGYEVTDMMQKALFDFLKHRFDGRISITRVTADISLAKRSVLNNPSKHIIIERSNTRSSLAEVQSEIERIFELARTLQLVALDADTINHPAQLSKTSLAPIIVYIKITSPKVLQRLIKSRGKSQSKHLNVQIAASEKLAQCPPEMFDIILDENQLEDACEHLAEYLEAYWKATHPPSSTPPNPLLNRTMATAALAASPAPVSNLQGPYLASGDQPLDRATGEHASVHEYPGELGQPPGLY

[2] = molecular target: DHPR β1a SH3 domain (β1a residues V101-P272) (mouse) (UniProt Q8R3Z5)
Chain of DHPR β1a SH3 domain (β1a residues V101-P272) (mouse) (Q8R3Z5 other isoform, or with tags, fused parts or gaps): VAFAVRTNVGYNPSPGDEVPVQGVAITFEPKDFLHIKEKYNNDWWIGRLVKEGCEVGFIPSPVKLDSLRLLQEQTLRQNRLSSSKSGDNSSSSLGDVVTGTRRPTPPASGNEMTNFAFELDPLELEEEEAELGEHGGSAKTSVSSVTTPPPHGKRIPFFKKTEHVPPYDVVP

[3] = molecular target: β1a/β2a RT loop chimera, HE to PG mutant (mouse)
[4] = molecular target: β2a HE to PG mutant (mouse) (UniProt Q8CC27)

Chain of α1s II–III loop C region peptide (residues 720–765) (P07293 720-765): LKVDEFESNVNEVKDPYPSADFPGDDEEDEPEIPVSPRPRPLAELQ

Substance | Kd [1] [µM] | Kd [2] [µM] | Kd [3] [µM] | Kd [4] [µM]
α1s C binding peptide 1 (from UniProt P07293 733-745) | 3.6 | 2.6 |  | 
α1s C binding peptide 2 (from UniProt P07293 748-764) | 5.4 | 3.8 |  | 
sP1 P⟶T mutant (from UniProt P07293 733-745) (peptide) | 22 | 19 |  | 
sP1 A⟶P mutant (from UniProt P07293 733-745) (peptide) | 4.5 | 2.3 |  | 
DHPR α1s I-II loop AID peptide | 0.0152 |  |  | 
sP1 D⟶E mutant (from UniProt P07293 733-745) (peptide) | 15 | 17 |  | 
sP1 F⟶T mutant (from UniProt P07293 733-745) (peptide) | 4.6 | 4.6 |  | 
α1s II–III loop C region peptide (residues 720–765) (from UniProt P07293 720-765) |  |  | 8.7 | 10.4
